Experimental findings from paper PMC4101993 (Nature structural & molecular biology, 2014) are described below.

The data set deals with the molecule itself. As to the kind of experiment: SEC-MALS.

B1: Purified EttA (gel filtration with static light scattering) (natural protein, E. coli)
chain: MAQFVYTMHRVGKVVPPKRHILKNISLSFFPGAKIGVLGLNGAGKSTLLRIMAGIDKDIEGEARPQPDIKIGYLPQEPQLNPEHTVRESIEEAVSEVVNALKRLDEVYALYADPDADFDKLAAEQGRLEEIIQAHDGHNLNVQLERAADALRLPDWDAKIANLSGGERRRVALCRLLLEKPDMLLLDEPTNHLDAESVAWLERFLHDFEGTVVAITHDRYFLDNVAGWILELDRGEGIPWEGNYSSWLEQKDQRLAQEASQEAARRKSIEKELEWVRQGTKGRQSKGKARLARFEELNSTEYQKRNETNELFIPPGPRLGDKVLEVSNLRKSYGDRLLIDDLSFSIPKGAIVGIIGPNGAGKSTLFRMISGQEQPDSGTITLGETVKLASVDQFRDSMDNSKTVWEEVSGGLDIMKIGNTEMPSRAYVGRFNFKGVDQGKRVGELSGGERGRLHLAKLLQVGGNMLLLDEPTNDLDIETLRALENALLEFPGCAMVISHDRWFLDRIATHILDYQDEGKVEFFEGNFTEYEEYKKRTLGADALEPKRIKYKRIAK
Regarding B1, the “stoichiometry N” value came out at 2.
